The values below are quoted from earlier work in patent publication US6689582B1, “Polynucleotide molecules encoding proteins having proteinase inhibitor activity” (Bayer Pharmaceuticals Corporation, priority 1999, dated 2004).

A word on the Ki: it is a dissociation constant, usually derived from enzyme kinetics or from competition with a known ligand.

Read-outs that look alike come from different tables or passages of the source. Ends that are not written are not given here.

The target of data set [1] is T1, leukocyte elastase (Homo sapiens, UniProt P08246).
T1 sequence (P08246 30-267): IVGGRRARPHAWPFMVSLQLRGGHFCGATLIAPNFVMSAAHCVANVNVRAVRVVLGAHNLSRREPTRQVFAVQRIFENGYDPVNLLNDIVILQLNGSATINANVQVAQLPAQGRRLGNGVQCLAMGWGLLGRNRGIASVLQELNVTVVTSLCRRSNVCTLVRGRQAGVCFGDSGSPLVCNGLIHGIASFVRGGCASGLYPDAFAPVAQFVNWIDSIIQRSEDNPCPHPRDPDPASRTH

Data set [2] has as its target thrombin (Homo sapiens, UniProt P00734).
In data set [3] the target is T2, cathepsin G (Homo sapiens, UniProt P08311).
T2 sequence (P08311 21-255): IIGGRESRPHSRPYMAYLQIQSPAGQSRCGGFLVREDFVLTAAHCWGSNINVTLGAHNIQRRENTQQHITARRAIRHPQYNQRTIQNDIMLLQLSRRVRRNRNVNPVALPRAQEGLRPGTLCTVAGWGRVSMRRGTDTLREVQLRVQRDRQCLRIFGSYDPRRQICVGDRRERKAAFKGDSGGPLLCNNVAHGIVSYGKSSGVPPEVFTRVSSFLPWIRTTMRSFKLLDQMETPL

Data set [4] concerns the target T3, proteinase 3 (Homo sapiens, UniProt P24158).
T3 sequence (P24158 28-256): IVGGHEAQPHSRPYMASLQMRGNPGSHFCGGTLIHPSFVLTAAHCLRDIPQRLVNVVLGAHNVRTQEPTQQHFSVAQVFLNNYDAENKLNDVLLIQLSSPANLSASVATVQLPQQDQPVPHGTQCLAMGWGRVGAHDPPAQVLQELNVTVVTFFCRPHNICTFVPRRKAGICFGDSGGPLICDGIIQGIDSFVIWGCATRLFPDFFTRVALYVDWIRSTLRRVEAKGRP

Data set [5] deals with plasma kallikrein (Homo sapiens, UniProt P03952).
Sequence of plasma kallikrein (P03952 20-638, species assumed): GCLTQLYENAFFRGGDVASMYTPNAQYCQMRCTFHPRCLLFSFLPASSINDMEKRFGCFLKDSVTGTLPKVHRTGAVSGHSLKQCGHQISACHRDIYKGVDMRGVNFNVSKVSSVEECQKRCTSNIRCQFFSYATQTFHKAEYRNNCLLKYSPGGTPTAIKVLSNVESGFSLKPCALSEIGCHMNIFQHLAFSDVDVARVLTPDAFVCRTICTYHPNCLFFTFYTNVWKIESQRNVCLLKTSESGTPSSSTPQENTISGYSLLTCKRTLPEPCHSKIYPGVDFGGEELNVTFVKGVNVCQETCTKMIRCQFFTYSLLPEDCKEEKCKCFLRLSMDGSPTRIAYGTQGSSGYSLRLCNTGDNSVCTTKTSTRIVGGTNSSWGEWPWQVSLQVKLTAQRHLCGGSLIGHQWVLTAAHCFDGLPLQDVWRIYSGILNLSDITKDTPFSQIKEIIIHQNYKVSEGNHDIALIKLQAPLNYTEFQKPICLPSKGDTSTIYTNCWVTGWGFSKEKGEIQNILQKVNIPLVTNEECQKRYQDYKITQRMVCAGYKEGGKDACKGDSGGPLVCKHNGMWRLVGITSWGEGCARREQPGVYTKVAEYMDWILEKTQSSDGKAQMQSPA

On to “alpha 1-proteinase inhibitor [Arg358]: P1 variant of alpha 1-proteinase inhibitor”, for which, in data set [1], the “inhibition of leukocyte elastase (in words)” value is on record as “not”. Besides, in data set [2], the “inhibition of thrombin (in words)” value is listed as “potent inhibitor”.
“Alpha-1-proteinase: serpin family serine proteinase inhibitor, major serum inhibitor of elastase and cathepsin G”: the “inhibition of cathepsin G (in words)” value in data set [3] is given as “inhibit”; in data set [3] (listed as Alpha 1-proteinase inhibitor), “potent inhibitor”.
“elafin: member of the mucous proteinase inhibitor family (AQEPVKGPVSTKPGSCPIILIRCAMLNPPNRCLKDTDCPGIKKCCEGSCGMACFVPQ; ends and bridges not checked; cysteine pairing not given here; UniProt P19957 61-117, looked up)”: in data set [4], the “inhibition of proteinase 3 (in words)” value is on record as “not”.
Take “APP KD variant (T11D, P13H, M17A, I18H, S19P and F34Y): phage display derived plasma kallikrein inhibitor differing from APP KD at 6 key residues (VREVCSEQAEDGHCRAAHPRWYFDVTEGKCAPFYYGGCGGNRNNFDTEEYCMAVC; ends and bridges not checked; cysteine pairing not given here)”: in data set [5], the Ki was about 0.015 nM and the “increase in binding affinity to plasma kallikrein compared to wild-type APP KD” value is on record as “more than 10,000 fold”.

B1: SLPI: member of the mucous proteinase inhibitor family (protein, UniProt P03973 26-132, looked up)
Antileukoproteinase: SGKSFKAGVCPPKKSAQCLRYKKPECQSDWQCPGKKRCCPDTCGIKCLDPVDTPNPTRRKPGKCPVTYGQCLMLNPPNFCEMDGQCKRDLKCCMGMCGKSCVSPVKA
With B1, in data set [4], the “inhibition of proteinase 3 (in words)” value is “not”.

B2: Alpha-1-antichymotrypsin: serpin family proteinase inhibitor, physiological cathepsin G inhibitor (protein, UniProt P01011 24-423, looked up)
Alpha-1-antichymotrypsin: HPNSPLDEENLTQENQDRGTHVDLGLASANVDFAFSLYKQLVLKAPDKNVIFSPLSISTALAFLSLGAHNTTLTEILKGLKFNLTETSEAEIHQSFQHLLRTLNQSSDELQLSMGNAMFVKEQLSLLDRFTEDAKRLYGSEAFATDFQDSAAAKKLINDYVKNGTRGKITDLIKDLDSQTMMVLVNYIFFKAKWEMPFDPQDTHQSRFYLSKKKWVMVPMMSLHHLTIPYFRDEELSCTVVELKYTGNASALFILPDQDKMEEVEAMLLPETLKRWRDSLEFREIGELYLPKFSISRDYNLNDILLQLGIEEAFTSKADLSGITGARNLAVSQVVHKAVLDVFEEGTEASAATAVKITLLSALVETRTIVRFNRPFLMIIVPTDTQNIFFMSKVTNPKQA
With B2, the “inhibition of proteinase 3 (in words)” value in data set [4] is “not”.

B3: placental bikunin: human Kunitz family inhibitor, potent inhibitor of plasmin (protein, UniProt O43291 28-252, looked up)
Kunitz-type protease …: ADRERSIHDFCLVSKVVGRCRASMPRWWYNVTDGSCQLFVYGGCDGNSNNYLTKEECLKKCATVTENATGDLATSRNAADSSVPSAPRRQDSEDHSSDMFNYEEYCTANAVTGPCRASFPRWYFDVERNSCNNFIYGGCRGNKNSYRSEEACMLRCFRQQENPPLPLGSKVVVLAGLFVMVLILFLGASMVYLIRVARRNQERALRTVWSSGDDKEQLVKNTYVL
Consider B3, for which the “inhibition of leukocyte elastase (in words)” value in data set [1] is “not”.
